# Target: PeB^GF-Lys, double substituted variant ([change], [change]) of PeB-Lys (mouse)
# Assay: SPR
substance,measurement,value
"hemagglutinin (HA) of influenza A/California/7/2009 H1N1, in the split vaccine Pandemrix (natural protein)",fold amount of hemagglutinin bound compared to PeB,20 fold
